Measurements reported in US5576294A, “Human Kunitz-type protease inhibitor variant” (Novo Nordisk A/S, priority 1992, dated 1996).

Columns and labels:
[1] = high doses; cardiac surgery including cardiopulmonary bypass operations; cited from earlier work
collagenase = conditions: Wenzel and Tschesche 1981; cited from earlier work
granulocyte elastase = biological target: T1, granulocyte elastase (Homo sapiens, UniProt P08246); conditions: Wenzel and Tschesche 1981; cited from earlier work
T1 sequence (P08246 30-267): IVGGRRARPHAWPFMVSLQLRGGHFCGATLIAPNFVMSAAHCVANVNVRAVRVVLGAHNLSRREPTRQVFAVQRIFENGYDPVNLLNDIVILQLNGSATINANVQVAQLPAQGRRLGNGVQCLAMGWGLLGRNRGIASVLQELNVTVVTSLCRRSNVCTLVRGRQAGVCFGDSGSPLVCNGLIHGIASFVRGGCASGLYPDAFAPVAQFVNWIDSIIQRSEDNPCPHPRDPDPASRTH

plasma kallikrein [2] = biological target: T2, plasma kallikrein (Homo sapiens, UniProt P03952); conditions: cf. WO 89/10374; cited from earlier work
Target sequence in this assay (P03952 20-638, species assumed): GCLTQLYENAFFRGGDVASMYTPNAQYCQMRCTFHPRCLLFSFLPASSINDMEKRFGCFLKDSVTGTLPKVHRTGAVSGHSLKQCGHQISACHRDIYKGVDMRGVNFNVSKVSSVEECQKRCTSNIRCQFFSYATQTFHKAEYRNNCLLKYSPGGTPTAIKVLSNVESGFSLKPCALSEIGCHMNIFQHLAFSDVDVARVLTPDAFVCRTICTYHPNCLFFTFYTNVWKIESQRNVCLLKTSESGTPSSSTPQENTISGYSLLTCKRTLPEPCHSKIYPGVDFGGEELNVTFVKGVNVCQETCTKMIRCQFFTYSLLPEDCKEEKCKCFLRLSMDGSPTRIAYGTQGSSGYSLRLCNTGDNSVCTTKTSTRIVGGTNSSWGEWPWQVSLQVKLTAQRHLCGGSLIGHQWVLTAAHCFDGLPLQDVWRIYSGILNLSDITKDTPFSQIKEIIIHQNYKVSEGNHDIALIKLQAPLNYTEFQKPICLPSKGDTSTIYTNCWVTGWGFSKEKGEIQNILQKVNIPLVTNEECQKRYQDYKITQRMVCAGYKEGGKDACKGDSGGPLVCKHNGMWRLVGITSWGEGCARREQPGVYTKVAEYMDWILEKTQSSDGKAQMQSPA

[3] = biological target: T3, Human neutrophil elastase (Homo sapiens, UniProt P08246); experiment: Inhibition of serine proteinases: neutrophil elastase; type: biochemical; conditions: Example 3; 30 min incubation, FIG. 3
T3 construct: Human neutrophil elastase and cathepsin G was purified from extracts of PMNs; from tissue; host or cells: extracts of human polymorphonuclear leukocytes (PMNs), method of Baugh and Travis
T3 sequence (P08246 30-267): T1 sequence (P08246 30-267)
Description: (§1) KFN 1593 was purified from yeast culture medium as described in example 1. The concentration of KFN 1593 was determined using 1% E280 nm =8.3 and Mw =6500. Porcine trypsin was from Novo Nordisk (Bagsv.ae butted.rd, Denmark), bovine chymotrypsin (TLCK treated) and porcine pancreatic kallikrein was from Sigma Chemical Co (St. Louis, Mo., U.S.A.), human plasmin and human plasma kallikrein was from Kabi (Stockholm, Sweden).
(§2) Human neutrophil elastase and cathepsin G was purified from extracts of PMNs according to the method described by Baugh and Travis (Biochemistry 15 (1976) 836-843). Peptidyl nitroanilide substrates, S2251, S2586, S2266, S2302 were from Kabi (Stockholm, Sweden). M4765 and S7388 was from Sigma Chemical Co (St. Louis, Mo., U.S.A.) and FXa-1 was from NycoMed (Oslo, Norway).
Serine proteinases were incubated with various concentrations of KFN 1593 for 30 min. Substrate was then added and residual proteinase activity was measured at 405 nm. […]
(§3) The four variants were purified from yeast culture medium. Their concentrations were determined from the absorbance at 214 nm using BTPI as a standard. Porcine trypsin was obtained from Novo Nordisk A/S (Bagsvaerd, Denmark, bovine chymotrypsin (TLCK treated) was obtained from Sigma Chemical Co. (St. Louis, Mo., U.S.A.). Truncated human recombinant tissue factor was obtained from Corvas (San Diego, Calif., U.S.A.). Human plasmin was from Kabi (Stockholm, Sweden). Human neutrophil cathepsin G and elastase were purified from extracts of PMNs according to the method described by Baugh and Travis (Biochemistry 15 (1976) 836-843).
(§4) Peptidyl nitroanilide substrates, S2251, S2586 were from Kabi (Stockholm, Sweden). S7388 and M4765 were from Sigma Chemical Co. (St. Louis, Mo., U.S.A.).
(§5) Serine proteinases were incubated with various concentrations of the variants for 30 min. Substrate ([…]) was then added and residual proteinase activity was measured at 405 nm.

Human plasmin = Human plasmin (Homo sapiens, UniProt P00747); experiment: Inhibition of serine proteinases: plasmin; type: biochemical; parameters: human plasmin and human plasma kallikrein was from Kabi (Stockholm, Sweden); purchased Kabi (Stockholm, Sweden); conditions: Example 3; 30 min incubation, FIG. 2
Description: as §1, §2
(§6) Serine proteinases were incubated with various concentrations of KFN 1593 for 30 min. Substrate was then added and residual proteinase activity was measured at 405 nm.
(§7) The three TFPI (domain II) variants were purified from yeast culture medium. Their concentrations were determined from the absorbance at 214 nm using BPTI as a standard. The final concentration was determined by titration with trypsin. Porcine trypsin and human recombinant proteins, factor VIIa, activated protein C (ACP), and tPA were obtained from Novo Nordisk A/S (Bagsvaerd, Denmark), so was human thrombin. Bovine chymotrypsin and glandular kallikrein were obtained from Sigma Chemical Co. (St. Louis, Mo., U.S.A.). Truncated human recombinant tissue factor was obtained from Corvas (San Diego, Calif., U.S.A.). Human neutrophil cathepsin G was purified from extracts of PMNs according to the method described by Baugh and Travis (Biochemistry 15 (1976) 836-843). Human plasmin was from Kabi (Stockholm, Sweden), uPA was from Serono (Milan, Italy), human factor Xa was a gift from Dr. W. Kisiel (Albuquerque, N.M., U.S.A.), and human plasma kallikrein was a gift from Dr. I Schousboe (Copenhagen, Denmark).
(§8) Peptidyl nitroanilide substrates, S2251, S2302, S2266, S2586, S2288, S2444, S2366, and S2238 were from Kabi (Stockholm, Sweden). S7388 and M4765 were from Sigma Chemical Co. (St. Louis, Mo., U.S.A.) and FXa-1 was from Nycomed (Oslo, Norway).
(§9) Serine proteinases were incubated with various concentrations of Kunitz Domain variant for 30 min. Substrate (0.6 mM) was then added and residual proteinase activity was measured at 405 nm.
as §3, §4, §5

[4] = biological target: T4, Human neutrophil cathepsin G (Homo sapiens, UniProt P08311); experiment: Inhibition of serine proteinases: neutrophil cathepsin G; type: biochemical; conditions: Example 3; 30 min incubation, FIG. 3
T4 construct: Human neutrophil cathepsin G was purified from extracts of PMNs; from tissue; host or cells: extracts of human polymorphonuclear leukocytes (PMNs), method of Baugh and Travis
T4 sequence (P08311 21-255): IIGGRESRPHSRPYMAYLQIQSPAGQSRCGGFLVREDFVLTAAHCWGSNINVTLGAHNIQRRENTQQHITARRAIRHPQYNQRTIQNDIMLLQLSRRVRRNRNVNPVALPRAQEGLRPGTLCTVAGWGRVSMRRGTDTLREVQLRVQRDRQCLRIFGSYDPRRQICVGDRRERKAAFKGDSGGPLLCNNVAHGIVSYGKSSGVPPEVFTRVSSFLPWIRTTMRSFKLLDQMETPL
Description: as §1, §2, §6, §7, §8, §9, §3, §4, §5

[5] = biological target: T5, glandular kallikrein (porcine pancreatic kallikrein) (Sus scrofa, UniProt P00752); experiment: Inhibition of serine proteinases: glandular kallikrein; type: biochemical; conditions: Example 3; 30 min incubation, FIG. 3
T5 construct: purchased Sigma Chemical Co (St. Louis, Mo., U.S.A.)
Description: as §1, §2, §6, §7, §8, §9

plasma kallikrein [6] = biological target: T2, plasma kallikrein; experiment: Inhibition of serine proteinases: plasma kallikrein; type: biochemical; conditions: Example 3; 30 min incubation, FIG. 3
Description: as §1, §2, §6, §7, §8, §9
Target sequence in this assay (P03952 391-638 limits assumed): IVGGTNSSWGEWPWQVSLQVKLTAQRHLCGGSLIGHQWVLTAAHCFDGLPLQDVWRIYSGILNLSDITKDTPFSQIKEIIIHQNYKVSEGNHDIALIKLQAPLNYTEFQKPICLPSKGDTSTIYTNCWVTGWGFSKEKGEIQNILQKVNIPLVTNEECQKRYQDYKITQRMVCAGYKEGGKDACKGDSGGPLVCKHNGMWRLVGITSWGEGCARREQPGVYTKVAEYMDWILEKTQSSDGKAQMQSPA
Target sequence in this assay (P03952 20-390 limits assumed): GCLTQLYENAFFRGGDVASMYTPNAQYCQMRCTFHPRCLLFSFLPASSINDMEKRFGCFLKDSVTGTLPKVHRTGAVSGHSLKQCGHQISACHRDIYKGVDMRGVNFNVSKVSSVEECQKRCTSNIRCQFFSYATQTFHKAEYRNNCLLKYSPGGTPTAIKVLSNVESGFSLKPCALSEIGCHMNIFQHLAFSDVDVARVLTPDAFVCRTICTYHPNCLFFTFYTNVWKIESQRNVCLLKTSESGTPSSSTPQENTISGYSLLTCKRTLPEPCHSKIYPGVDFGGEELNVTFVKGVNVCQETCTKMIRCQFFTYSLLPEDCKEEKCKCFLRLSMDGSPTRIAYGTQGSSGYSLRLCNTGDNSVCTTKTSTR

human factor Xa = biological target: T6, human factor Xa (Homo sapiens, UniProt P00742); experiment: Inhibition of serine proteinases: Factor Xa; type: biochemical; conditions: Example 3; 30 min incubation; read-out: Ki, factor X.
T6 construct: human factor Xa was a gift from Dr. W. Kisiel; gift from Dr. W. Kisiel (Albuquerque, N.M., U.S.A.)
Description: as §1, §2, §6
The three TFPI (domain II) variants were purified from yeast culture medium. Their concentrations were determined from the absorbance at 214 nm using BPTI as a standard. The final concentration was determined by titration with trypsin. […]
as §9

Sequence of Human plasmin (P00747 581-810 limits assumed): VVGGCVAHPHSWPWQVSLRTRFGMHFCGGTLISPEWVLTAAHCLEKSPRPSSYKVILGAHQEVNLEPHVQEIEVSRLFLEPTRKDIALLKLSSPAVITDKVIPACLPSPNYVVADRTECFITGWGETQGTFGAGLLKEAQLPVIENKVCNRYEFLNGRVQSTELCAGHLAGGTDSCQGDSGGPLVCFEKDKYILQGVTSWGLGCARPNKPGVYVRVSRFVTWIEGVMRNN
Sequence of Human plasmin (P00747 97-580 limits assumed): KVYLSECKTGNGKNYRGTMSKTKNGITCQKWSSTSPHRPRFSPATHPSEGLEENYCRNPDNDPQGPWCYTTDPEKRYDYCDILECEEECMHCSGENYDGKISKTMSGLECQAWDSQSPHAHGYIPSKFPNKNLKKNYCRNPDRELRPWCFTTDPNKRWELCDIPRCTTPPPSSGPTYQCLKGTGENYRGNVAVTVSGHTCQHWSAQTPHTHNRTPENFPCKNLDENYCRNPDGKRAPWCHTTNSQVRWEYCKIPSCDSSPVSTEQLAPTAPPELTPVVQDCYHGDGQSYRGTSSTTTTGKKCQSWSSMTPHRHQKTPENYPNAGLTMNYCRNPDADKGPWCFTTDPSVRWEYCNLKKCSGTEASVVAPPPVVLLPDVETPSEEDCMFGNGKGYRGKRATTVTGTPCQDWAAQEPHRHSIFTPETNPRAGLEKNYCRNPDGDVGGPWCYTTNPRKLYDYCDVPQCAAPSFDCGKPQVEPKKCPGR
T5 sequence (P00752 8-246): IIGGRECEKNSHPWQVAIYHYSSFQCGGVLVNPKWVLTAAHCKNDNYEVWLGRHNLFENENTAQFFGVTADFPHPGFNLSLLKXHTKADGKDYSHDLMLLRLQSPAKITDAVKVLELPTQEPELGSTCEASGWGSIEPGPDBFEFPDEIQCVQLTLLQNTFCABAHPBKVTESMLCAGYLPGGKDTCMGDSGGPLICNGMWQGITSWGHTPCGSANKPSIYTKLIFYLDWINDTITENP
T6 sequence (P00742 235-488 limits assumed): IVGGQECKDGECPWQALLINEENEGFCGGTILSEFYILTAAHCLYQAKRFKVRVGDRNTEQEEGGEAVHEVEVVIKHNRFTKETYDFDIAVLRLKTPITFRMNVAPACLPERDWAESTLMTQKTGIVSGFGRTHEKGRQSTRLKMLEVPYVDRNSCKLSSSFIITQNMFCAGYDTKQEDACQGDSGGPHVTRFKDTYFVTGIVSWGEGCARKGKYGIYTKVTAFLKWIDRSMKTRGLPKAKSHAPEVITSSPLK
T6 sequence (P00742 41-179 limits assumed): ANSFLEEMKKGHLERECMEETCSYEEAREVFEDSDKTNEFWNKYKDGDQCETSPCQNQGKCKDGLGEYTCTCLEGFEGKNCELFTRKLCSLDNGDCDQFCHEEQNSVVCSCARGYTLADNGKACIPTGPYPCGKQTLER

aprotinin
blood loss in connection with cardiac surgery [1]: significantly reduces blood loss

aprotinin(1-58, Val15)
effect on collagenase (in words) (collagenase): inhibitory effect | effect on granulocyte elastase (in words) (granulocyte elastase): relatively high selectivity

aprotinin (3-58, Arg15, Ala17, Ser42)
plasma kallikrein inhibitory effect (in words) (plasma kallikrein [2]): excellent plasma kallikrein inhibitory effect

KFN 1593: Unmodified TFPI Kunitz domain II (second Kunitz domain of tissue factor pathway inhibitor), produced from yeast strain KFN-1593 (RFESLEECKKMCTRDNANRIIKTTLQQEKPDFCFLEEDPGICRGYITRYFYNNQTKQC)
inhibition of neutrophil elastase (in words) [3]: moderate inhibition | inhibition of plasmin (in words) (Human plasmin): moderate inhibition | inhibition of Cathepsin G (in words) [4]: essentially absent | inhibition of kallikreins (in words): glandular kallikrein [5]: essentially absent | inhibition of kallikreins (in words): plasma kallikrein (plasma kallikrein [6]): essentially absent | Ki (human factor Xa): 0.15 µM
